This note sets out measurements from patent US8017725B2, “Use of heparin-binding domain of fibronectin for diagnosis and treatment of cancer” (Novartis Forschungesstiftung Zweigniederlassung Friedrich …, priority 2001, dated 2011).

“Also recorded” adds a separate entry of the source.

The subject of assay [1] is T98G cells, MDA-MB435 cells and rat embryo fibroblasts REF52. The assay can be described thus: Attachment assay: cell spreading on fibronectin/tenascin-C with added fibronectin fragment. It is filed as cell-based. As for the experimental part:
60-well microtiter plates (Nunc) were coated with 10 μg/ml ECM molecules giving rise to 1 μg/cm^2 (fibronectin and tenascin-C) and 4 μg/cm^2 (FNIII13) for 1 h at 37° C. ECM proteins were coated separately, starting with fibronectin, followed by tenascin-C, FNIII13 and BSA. The non-coated plastic surface was blocked with 1% heat-inactivated BSA in PBS giving rise to 10 μg/cm^2 protein. Similarly, mixed substrata of collagen I and laminin 1, respectively with tenascin-C were prepared and tenascin-C was detected by ELISA.
Efficient fibronectin and tenascin-C coating was determined by ELISA with an anti-fibronectin and anti-tenascin-C antibody (Fischer, D. et al (1995) J Biol Chem 270: 3378-3384), respectively and by PAGE analysis of lysed surface-bound ECM material combined with Coomassie Brilliant Blue staining. Before plating, cells were serum starved for 18 h in DMEM containing 1×ITS (insulin, transferrin, selene) supplement, trypsinised, trypsin was blocked with 100 μg/ml soybean trypsin inhibitor in PBS and, cells were resuspended in serum-free medium and counted. 200-500 cells per well were plated for the indicated time points, fixed by addition of glutaraldehyde (2% final concentration) for 15 minutes and stained with 0.1% crystalviolet in 20% methanol for 30 minutes. Cells were observed under a Nikon microscope (Nikon diaphot) and pictures were taken with a Nikon camera.
(§1) Cells were plated on substrata (FN, FN/TN, FN/TN/III13, FN/TN+III13, III13, or BSA) for 1 h and 2 h, fixed and stained with crystal violet or vinculin and TRITC—labelled phalloidin. Adherent cells were photographed and spread cells were counted. Six-fold molar excess of FNIII13 (4 μg/cm^2) was either bound to a mixed fibronectin/tenascin-C substratum prior to addition of the cells (FN/TN/III13) or, was added in solution together with the cells (FN/TN+FNIII13). Proliferation of MDA-MB435 cells and DNA replication of T98G glioblastoma cells were determined as described in Examples 4 and 5. […] T98G cells plated for 2 h on fibronectin or on the mixed substratum were stained for vinculin. […] In addition, polymerisation of actin into stress fibres was blocked by tenascin-C. No polymerised actin was found.

In the next assay the test system is T98G and REF52 cells. The experiment in a line: Immunofluorescence of actin stress fibres and focal contacts. Type of assay: cell-based. As for the experimental part:
10^4 cells were transferred onto 4-well Cellstar plastic plates (Greiner) that were coated with ECM proteins as described. Cells were fixed with 4% paraformaldehyde, 50 mM phosphate buffer, 5 mM EDTA in PBS for 15 minutes, blocked with 3% BSA, 0.5% Tween-20 in PBS and incubated with primary and secondary antibodies in blocking solution. Slides were embedded in 10.5% Mowiol containing 2.5% DABCO as antifade agent. Expression of syndecans was determined by immunofluorescence.
as §1

Assay [2] relates to tenascin-C. The assay can be described thus: In vitro binding assay (ELISA) to tenascin-C. Details: species or system chicken. The conditions noted are these: substratum-immobilised tenascin-C. On the procedure: (§2) 96-well ELISA plates were coated with the indicated ECM proteins for 1 h at 37° C., blocked with 1% milkpowder, 0.05% Tween-20 in PBS. ECM proteins were added at the indicated concentrations in blocking solution for 1 h, washed with blocking solution and anti-fibronectin or anti-tenascin-C antibodies were added. Bound proteins were detected by immune reaction with a peroxidase-coupled secondary antibody specifically recognising anti-fibronectin and anti-tenascin-C antibodies, respectively, followed by colour reaction with 21 mg/ml citric acid 1-hydrate, 34 mg/ml Na2HPO4.2H2O, 0.4 mg/ml phenylenediamine, 1 μl H2O2 that was stopped with 4M sulphuric acid. The absorbance was read at […].
Bound fragments were detected with a polyclonal anti-fibronectin antibody, bound tenascin-C was detected with a monoclonal anti-tenascin-C antibody.

The next assay relates to syndecan-4. The experiment in a line: Syndecan-4 immunoprecipitation and immunoblotting for FNIII13. It is filed as binding. On the procedure:
(§3) To investigate FNIII13 as a potential ligand of syndecan-4, the interaction of syndecan-4 with FNIII13 was tested. Upon addition of FNIII13 to T98G:S4* cells, FNIII13 was detected in a syndecan-4 immunoprecipitation followed by western blotting with a GST specific antibody. This interaction was blocked upon addition of heparin. Parental and syndecan-4 overexpressing T98G:S4* cells were incubated with (100 μg/ml) FNIII13 for 1 h in the presence or absence of 0.5 mg/ml heparin. Syndecan-4-bound FNIII13 was detected by immunoprecipitation of syndecan-4 and immunoblotting for FNIII13. Recombinant FNIII13 was added to the cells in the absence or presence of (0.5 mg/ml) heparin. […] To further test whether FNIII13 binds to syndecan-4, FNIII13 was added to T98G cells and cell surface-bound FNIII13 was detected by pull down of the GST-tagged FNIII13 with glutathione Sepharose followed by western blotting with an anti-His antibody or by immunofluorescence with an anti-GST antibody. […] This interaction could be blocked by heparin showing that syndecan-4 bound FNIII13 in a glycosaminoglycan-dependent manner. In addition, cell surface-bound FNIII13 was detected by immunofluorescence with an anti-His and anti-GST antibody. […] Syndecan-2 expression was determined by incubation with chicken anti-syndecan-2, followed by rabbit anti-chicken and FITC coupled goat anti-rabbit immunostaining.
For orientation: A western blot detects proteins with antibodies after separation by electrophoresis.

Assay [3] concerns tenascin-C. The experiment in a line: Co-immunoprecipitation with tenascin-C. It is filed as binding, chicken.
For assay [4], the system named is FAK (focal adhesion kinase) autophosphorylation at Y397. The experiment in a line: FAK autophosphorylation by immunoblotting. Type of assay: cell-based, human. As to conditions: T98G parental and T98G:S4* cells. On the procedure: An experiment was performed to check for the possibility that tenascin-C might compete with syndecan-4 for binding to the HepII site in fibronectin. The experiment tested whether activation of syndecan-4 through overexpression could rescue the tenascin-C-induced spreading defect on fibronectin. Parent T98G cells, pools (T98G:S4) or a selected clone (T98G:S4*) of glioblastoma cells stably overexpressing syndecan-4 (T98G:S4) were plated on the indicated substrata for 30 minutes, 2 h, 18 h or fixed, stained with crystal violet, photographed, and counted or stained with TRITC-labelled phalloidin and vinculin. Syndecan-4 was detected by immunofluorescence with an anti-syndecan-4 antibody. There was no staining with an unspecific anti-His monoclonal antibody (control), nor with the secondary antibody alone. FAK (focal adhesion kinase) autophosphorylation at Y397 and total FAK expression levels were assessed by immunoblotting with specific antibodies. DNA replication was determined as described in Example 4 and 5. As a result, pools of T98G cells (T98G:S4) that overexpressed syndecan-4 thereby activating syndecan-4 attached and spread on the mixed fibronectin/tenascin-C substratum. The majority of the 64.7% of T98G:S4 cells that attached also spread on the fibronectin/tenascin-C substratum. […]

In assay [5] the test system is binding of tenascin-C to surface-immobilised intact fibronectin. The experiment in a line: Competition of tenascin-C binding to surface-immobilised intact fibronectin. On the procedure: as §2
No binding of the recombinant fragment FNIII7-10, including the RGD and synergy sites, to tenascin-C was detected in an ELISA assay.

Another assay concerns T98G:S4* cells. The assay can be described thus: Cell surface binding of FNIII13 (pull down, western blotting, immunofluorescence). As to conditions: compared to parental T98G. Type of assay: cell-based, human. On the procedure: as §3
Where [6] appears, read: fragment bound (immobilised) to the mixed substratum.

Regarding “SEQ ID NO:4: 20 amino acid fragment of FNIII13 having the sequence of SEQ ID NO:4, made by solid phase synthesis (RRARVTDATETTITISWRTK; listed as Homo sapiens)”, the “restoration of cell spreading on fibronectin/tenascin-C substratum” value in assay [1] (setting [6]) is recorded as “restored cell spreading”. Also, in the assay with T98G and REF52 cells, the “restoration of actin stress fibres and focal contacts on fibronectin/tenascin-C substratum” value was “largely restored”.

With “fibronectin: Fibronectin prepared from horse serum by gelatin agarose chromatography”, the “binding to tenascin-C in ELISA” value in the assay on tenascin-C [2] is recorded as “binds to substratum-immobilised tenascin-C in a dose-dependent manner”.

Take heparin [reference compound]: in the assay on syndecan-4 (0.5 mg/ml heparin), the “effect on the FNIII13/syndecan-4 interaction” value was “blocked”.

B1: FNIII13: recombinant 13th fibronectin type III repeat of the HepII site (SEQ ID NO:1) (protein, listed as Homo sapiens)
chain: NVSPPRRARVTDATETTITISWRTKTETITGFQVDAVPANGQTPIQRTIKPDVRSYTITGLQPGTDYKIYLYTLNDNARSSPVVIDAST
On to B1, for which the “attachment and spreading on the fragment alone as substratum” value in assay [1] (FNIII13 substratum without fibronectin) was “poorly attached and remained rounded”. Further, the “restoration of cell spreading on fibronectin/tenascin-C substratum” value in assay [1] (fragment added in solution together with the cells) is listed as “restored”; in assay [1] (setting [6]), “could restore the cell spreading defect”. In the assay with tenascin-C [2], the “binding to tenascin-C in ELISA” value is on record as “bound to tenascin-C in a dose-dependent manner reaching saturation”. Besides, the “complex formation with tenascin-C in co-immunoprecipitation” value with tenascin-C [3] is listed as “form complexes”. For the same molecule, in assay [4], the “FAK autophosphorylation at Y397” value is listed as “largely restored FAK autophosphorylation”. Further, in assay [5], the “competition of tenascin-C binding to immobilised intact fibronectin” value is on record as “competed for by FNIII13 in a concentration-dependent fashion”. Also, in the assay with T98G:S4* cells, the “binding to the cell surface of syndecan-4 overexpressing T98G cells” value was “dose-dependent and heparin-competable manner; also recorded: several fold increased levels”. Further, in the assay with T98G and REF52 cells, the “restoration of actin stress fibres and focal contacts on fibronectin/tenascin-C substratum” value is given as “largely restored”. For the same molecule, the “FNIII13 bound to syndecan-4 in immunoprecipitation” value in the assay on syndecan-4 (T98G:S4* cells, 100 μg/ml FNIII13, 1 h) is reported as “detected”.
